The values that follow come from patent KR20150077887A (dated 2015).

This assay addresses T1, NRS natively expressed in human cells (HeLa cell lysate) (human, UniProt O43776 1-548).
T1 construct: mature; Target of the western blot; also called human 세포에서 원래 발현된 NRS
T1 sequence (looked up): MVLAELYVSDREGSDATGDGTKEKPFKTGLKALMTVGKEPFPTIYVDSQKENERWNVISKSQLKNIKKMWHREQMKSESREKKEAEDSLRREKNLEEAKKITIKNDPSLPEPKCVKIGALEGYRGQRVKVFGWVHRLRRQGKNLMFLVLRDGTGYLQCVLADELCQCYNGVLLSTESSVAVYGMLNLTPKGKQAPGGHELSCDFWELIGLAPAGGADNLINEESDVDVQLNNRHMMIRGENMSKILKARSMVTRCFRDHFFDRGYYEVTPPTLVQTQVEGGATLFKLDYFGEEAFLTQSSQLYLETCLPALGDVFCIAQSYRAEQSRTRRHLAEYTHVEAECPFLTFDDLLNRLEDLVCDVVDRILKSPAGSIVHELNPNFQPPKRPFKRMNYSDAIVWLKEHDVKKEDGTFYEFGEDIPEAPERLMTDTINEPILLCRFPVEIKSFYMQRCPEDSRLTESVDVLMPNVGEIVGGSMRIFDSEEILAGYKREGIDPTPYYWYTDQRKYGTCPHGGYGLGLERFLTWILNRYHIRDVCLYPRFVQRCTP
Briefly: western blot on HeLa cell lysate with periplasmic scFv (clones from phage panning on NRS), anti-HA-HRP detection.

B1: SEQ ID NO 70 (scFv)
scFv: EVQLLESGGGLVQTGGSLRLSCAASGFTFSDYAMSWVRQAPGKGLEWVSGISYSGGSTYYADSVKGRFTISRDNSKNTLYLQMNSLRAEDTAVYYCAKNSRHFDYWGQGTLVTVSSGGGGSGGGGSGGGGSQSVLTQPPSASGTPGQRVTISCSGSSSNIGSNDVTWYQQLPGTAPKLLIYSNSHRPSGVPDRFSGSKSGTSASLAISGLRSEDEADYYCGAWDDSLNGYVFGGGTKLTVL
notes: It is probably the same molecule as one of Biocon-N1 to N5
As for B1, the binding result is “binds”.

B2: SEQ ID NO 42 (scFv)
scFv: EVQLLESGGGLVQPGGSLRLSCAASGFTFSNYSMSWVRQAPGKGLEWVSVISPGSGSKYYADSVKGRFTISRDNSKNTLYLQMNSLRAEDTAVYYCARTATIFDYWGQGTLVTVSSGGGGSGGGGSGGGGSQSVLTQPPSASGTPGQRVTISCTGSSSNIGSNYVSWYQQLPGTAPKLLIYADSQRPSGVPDRFSGSKSGTSASLAISGLRSEDEADYYCGTWDDSLSAYVFGGGTKLTVL
notes: as for B1
For B2, the binding result was “binds”.
